This data set addresses nsp16 (2'-O-methyltransferase);nsp10 (SARS-CoV-2;SARS-CoV-2, UniProt P0DTD1;P0DTD1 6799-7096;4254-4392, |). Put plainly: competition.

Regarding ACCCCC (ssRNA, 5' N7-methylguanosine cap (m7Gppp, cap-0); cap G not in strand) [Biotin-RNA N7-meGpppACCCCC-Biotin], the “apparent K (half saturation)” value is 4.3 µM.
